According to US20150160214A1, “Quantitation of Cellular Adhesion Dynamics Across Immobilized Receptors Under Rheological Shear Flow” (Mayo Foundation for Medical Education and Research, priority 2013, published 2015):
Entries after “also recorded” stand apart in the source; their conditions may differ.

Assays:
[1] = Irreversible thermal denaturation by CD, intrinsic fluorescence and ANS fluorescence (Example 2); assay type: physicochemical
Experimental: The unfolding of disulfide-intact A1 and RCAM A1 was also monitored via CD at 222 nm, intrinsic protein fluorescence at 280 nm/359 nm and ANS fluorescence at 350 nm/495 nm as a function of temperature.
CD thermalscans were recorded between 10 and 95° Celsius at 222 nm with a protein concentration of 1 μM in a 1 cm quartz cell under moderate stirring. Prior to each measurement protein samples were equilibrated at 10° Celsius for 10-15 min in order to obtain a stable baseline. The scanrate for all Thermalscans was 2° Celsius/min. The integration time for each data point was 20 s, the bandwidth 1 nm. All measured CD data were converted into mean molar ellipticities per amino acid residue.
Thermalscans monitoring protein fluorescence were recorded at an emission wavelength of 359 nm after excitation at 280 nm using a protein concentration of 2 μM in a 1 cm quartz cell under moderate stirring. ANS-Thermalscans were recorded at 495 nm after Excitation at 350 nm using 1 μM protein and 100 μM ANS. Prior to any performed thermalscan samples were equilibrated for 10-15 min. The scanrate was 2° Celsius/min. At each temperature between 10 or 20° Celsius and 95° Celsius relative fluorescence intensity was collected for 4 s and averaged.

[2] = Secondary structure contribution calculated from CD-spectra (CDNN); assay type: physicochemical; conditions: calculated from CD-spectra, CDNN
Experimental: Fluorescence and circular dichroism spectra of A1 and of RCAM A1 were measured to compare the basic spectroscopic properties of the two protein variants (FIG. 13). The fluorescence spectrum of native A1 has a relatively low intensity with λmax of ˜345 nm. In presence of 2 M GdnHCl the fluorescence intensity increases as the interior of the protein becomes solvent accessible and a red shift of the spectrum to ˜351 nm occurs. […] Nevertheless, RCAM A1 is still retains significant secondary structure content in solution; the distribution of which is summarized in Table 1. In the near UV, the CD of disulfide-intact A1 show a well-defined spectral banding pattern between 260 and 300 nm indicating significant tertiary structure content that is absent in RCAM A1.
(§1) Urea and GdnHCl induced unfolding of A1 and of RCAM A1 at 25° Celsius was monitored via CD at 222 nm on an Aviv Biomedical Model 420C circular dichroism spectrometer. A 1 mm quartz cuvette and protein concentrations of 5 or 10 μM were used. Samples were equilibrated in their urea or GdnHCl containing buffer at 25° Celsius overnight. CD-signal was averaged for 5 to 10 min using an integration time of 1 s. CD-spectra were measured at 20° Celsius using 0.1 or 1 mm quartz cells with a step width of 1 nm between 190 and 260 nm with an integration time of 20 s and a bandwidth of 1 nm. CD-spectra in the near UV range (260-360 nm) were recorded using a 5 cm quartz cell with a 120 s integration time. Transition curves and protein spectra were corrected for the CD Signal of the corresponding buffer.

platelet GPIbα = biological target: T1, platelet GPIbα (Homo sapiens, UniProt P07359); assay: Platelet adhesion to surface captured disulfide-intact A1 and RCAM A1 under shear flow (Example 2); assay type: cell-based
T1 construct: endogenous in cells; host or cells: platelets in citrated whole blood of normal healthy volunteer donors
Experimental: The interaction of disulfide-intact A1 and of RCAM A1 with platelets was studied by immobilizing the proteins via the 6×His-Tag on Cellix biochips in which the internal channel surface was coated with a Cu2+ chelating chemistry. A 5 μM concentration of protein was immobilized in the biochip and citrated whole blood was perfused at a shear rate of 800 s−1 (FIG. 11B). This perfusion was followed by TBS buffer and after red blood cells cleared the channel, the shear was decremented to 100 s−1 or incremented to 9000 s−1 every two minutes at logarithmic intervals. Surface bound platelets were allowed to equilibrate at a given shear rate for 50 s and a 60 s video at 24 frames per second was recorded and analyzed as described in the methods. The internal channel surface lacking immobilized A1 domain was completely inert to platelets.
At each shear rate, platelet mean pause times and mean translocation velocities were calculated from the X-Y trajectories of moving platelets as described in the methods. Approximately 1000 platelet trajectories were analyzed at each shear rate (FIGS. 11B to 11D). The mean pause times were also calculated from the pause time survival fraction obtained from the cumulative integral of the pause time distribution (FIG. 11B) (Thomas:2006). The survival fraction exponentially decreases with faster decay rates as shear increases. Fitting the survival fraction with a bi-exponential decay function results in the apparent rate constants and amplitudes as a function of shear rate (FIG. 11C).
The determination and analysis of platelet pause times and instantaneous translocation velocities over surface captured A1 and RCAM A1 was performed as previously described (Tischer:2013). Here, the inventor used the Cellix Mims Evo syringe pump controlled by VenaFluxAssay (www.cellixltd.com). Vena8™ CGS biochips were custom designed with 800 μm width by 80 μm height microchannels bonded to glass slides with a Cu^2+ chelated PEG surface serviced by Microsurfaces Inc. (www.proteinslides.com/histag.html) to which the A1 and RCAM A1 in TBS were captured by the 6×His-Tag at a total concentration of 5 μM. Citrated whole blood was obtained from the informed consent of healthy volunteer donors with approval from the Mayo Clinic Institutional Review Board and 100 μL was perfused over the surface captured A1 domains at […]. The shear was increased or decreased in a stepwise manner to measure the dynamics of platelet adhesion at high and low shear. After allowing the flow chamber to equilibrate for 50 s at each shear rate, 1 min movies were recorded at 24 frames per second in phase contrast at 200× magnification with 2×2 pixel binning on a Zeiss AxioCam Mrm camera (6.45 μm/px) attached to a Zeiss Axio Observer.D1 inverted microscope. Tracking analysis was performed using MediaCybernetics ImagePro® Premier (www.mediacy.com/index.aspx?page=IP\_Premier) The distance travelled in the direction of flow was calculated from the coordinate data for each platelet as a function of time using √{square root over ((xt−x0)^2)}, where x0 is the coordinates of a platelet on the first frame of the movie and xt is the coordinate on subsequent frames of the movie. These trajectories were differentiated into instantaneous velocities using a Savitzky-Golay algorithm (Savitzky:1964) with a five data point window size and a second order polynomial implemented into a Mathematica (www.wolfram.com/mathematica) notebook written in our lab. Trajectories were retained for statistical analysis if the platelet was present for ≧1 s and travelled a total distance greater than 1 Distance travelled in pixels (px) was converted to (μm) using 6.45 μm/px*2/200=0.0645 μm/px. Pause times were determined by the amount of time (sec) a platelets velocity was 0±4 px/s≅0±0.23 μm/s, within the noise. Data are reported as mean velocities and pause times attained by individual platelets averaged over all platelets analyzed. […]

[3] = GdnHCl- and urea-induced unfolding at 25° C. by circular dichroism (Example 2); assay type: physicochemical; conditions: GdnHCl, CD
Experimental: The thermodynamic stability of A1 and of RCAM A1 was determined from GdnHCl and urea induced unfolding measured via CD and FL at 25° Celsius (FIG. 14). […] Complete unfolding of A1 and of RCAM A1 occurs in GdnHCl but not in urea. However, in presence of urea, a small expansion of RCAM A1 compared to A1 in its intermediate state is observed.
as §1

[4] = Acrylamide quenching of tryptophan fluorescence (Stern-Volmer); assay type: physicochemical; conditions: buffer, 20° Celsius
Experimental: This was also confirmed via acrylamide induced tryotophan fluorescence quenching performed with an excitation wavelength of 295 nm.
Initially a quenching determination was performed with disulfide-intact A1 at 20° Celsius and at 1° Celsius in order to distinguish between static and collisional quenching. […] Clear evidence for collisional quenching could be obtained for the A1-domain since the Stern-Volmer constant decreased from 2.6±0.03 to 2.2±0.03 M−1, FIG. 16A, ruling out a static quenching mechanism.
Acrylamide quenching of tryptophan was performed using an excitation wavelength of 295 nm. After the addition of a certain amount of buffered acrylamide solution the protein solution was equilibrated for ˜5 min and then a fluorescence spectrum between 320 and 400 nm was recorded. Stern-Volmer constants were determined from the fluorescence intensity at 359 nm using the Stern-Volmer equation as described by Lakowicz (Lakowicz:2006)
where KD is the Stern-Volmer quenching constant and KD-1 is the concentration of acrylamide at which F0/F=2 and 50% of the fluorescence intensity is quenched.

Solubility (observation) = assay type: physicochemical
[5] = biological target: T2, Recombinant human vWF A1-1261 (amino acids D1261-P1471), N-terminal truncated variant (human, UniProt P04275 1261-1471); assay: thermal unfolding by Trp fluorescence at 2 °C/min; value without peptide
T2 construct: Lacks the linker residues Q1238-E1260; also called truncated A1
Description: (§2) The only way to examine such a stabilization using spectroscopy was the measurement of thermal unfolding via fluorescence. Since the N-terminal peptide also contains a single tyrosine residue, the excitation wavelength was changed to λ=295 nm in order to measure tryptophan fluorescence and the effect of the peptide on the unfolding of the A1-domain was observed indirectly. […] Thermal scans were also done in the presence of a peptide with the same amino acid composition, but a scrambled sequence. The inset of FIG. 7A compares the raw fluorescence thermal scans in the presence of 300 μM scrambled and N-terminal peptides. Unfolding in the presence of excess scrambled peptide was equivalent to unfolding in the absence of either peptide. […] Fitting the enthalpy data to a simple single site binding model yields a dissociation constant of ≈46±6 μM.

[6] = biological target: T2, Recombinant human vWF A1-1261 (amino …); assay: thermal unfolding by Trp fluorescence at 2 °C/min; value at saturating peptide
Description: as §2

[7] = biological target: T2, Recombinant human vWF A1-1261 (amino …); assay: thermal unfolding enthalpy of 2 µM A1-1261 (Trp fluorescence) against peptide concentration, single site binding model
Description: as §2

[8] = biological target: T2, Recombinant human vWF A1-1261 (amino …); assay: thermal unfolding by Trp fluorescence, 0.02-300 µM peptide; value at saturating peptide
Description: as §2

[9] = biological target: T2, Recombinant human vWF A1-1261 (amino …); assay: thermal unfolding by Trp fluorescence, 0.02-300 µM peptide; value without peptide
Description: as §2

[10] = biological target: T2, Recombinant human vWF A1-1261 (amino …); assay: unfolding enthalpy from fluorescence thermal scans of 2 µM A1-1261 against total peptide concentration
Description: as §2

[11] = biological target: T3, Recombinant human vWF A1-1238 (amino acids Q1238-P1471) (human, UniProt P04275 1238-1471); assay: unfolding enthalpy from fluorescence thermal scans of A1-1238 against total peptide concentration
T3 construct: captured on Cu2+ chelate surfaces by the His tag in the flow chamber assays; also called WT A1; disulfide-intact A1; not shown: N-terminal 6xHis-Tag from the Qiagen pQE-9 vector

Row | Molecule | Cooperative thermal unfolding transition ([1]; CD, intrinsic fluorescence and ANS fluorescence) | Temperature at which protein aggregation begins in thermal scan ([1]; absence of urea) [° Celsius] | % α-Helix [2] [%] | % β-sheet [2] [%] | Total number of platelets interacting, relative to disulfide-intact A1 (platelet GPIbα) | Velocity of a platelet translocating on the domain (platelet GPIbα; 1025 s−1) | Platelet translocation on surface-immobilized domain (platelet GPIbα; all applied shear rates, up to 9000 s−1) | cm, I ⇄ D [3] [M] | m-value, I ⇄ D [3] [kJ/mol/M] | ΔG^0, I ⇄ D [3] [kJ/mol] | Stern-Volmer constant [4] [M⁻¹] | Solubility (Solubility (observation)) | apparent TM of A1-1261 without and with saturating peptide [5] [° Celsius] | apparent TM of A1-1261 without and with saturating peptide [6] [° Celsius] | Kd [7] [µM] | unfolding enthalpy of A1-1261 without and with saturating peptide [8] [kJ/mol] | unfolding enthalpy of A1-1261 without and with saturating peptide [9] [kJ/mol] | EC50 (read off the curve) [10] [µM] | binding result [11]
1 | RCAM A1: vWF A1 domain (Q1238-P1471) with disulfide bond reduced and carboxyamidated; molten globule model of intermediate state | absent | ~40 | 25 | 22 | less, by approximately half | statistically zero | did not translocate across the surface at all applied shear rates; also recorded: firm adhesion with no platelet translocation | 3.83 ± 0.03 | −7.49 ± 0.49 | 28.69 ± 1.89 | 5.6 ± 0.4 | low solubility | – | – | – | – | – | – | –
2 | H-QEPGGLVVPPTDAPVSPTTLYVE-OH (Synthetic peptide; also called free N-terminal peptide; N-terminal linker peptide) [N-terminal peptide (QEPGGLVVPPTDAPVSPTTLYVE) corresponding to vWF residues Q1238-E1260] | – | – | – | – | – | – | – | – | – | – | – | – | 53 | 55.5 | ~46 | 242 | 197 | ~30 | no binding (tested: 100 µM)
